Columns and labels:
[1] = target: LPHN1-S (FLAG-tagged splice variant of murine LPHN1 with a truncated intracellular tail) (mouse); assay: immunostaining of cells or tissue; HEK-LPHN1-S, HEK-WT and HEK-Puro cells incubated with FITC-K37-mTCAP-1 (1:400) in medium with HEPES pH 7.4 and 0.1% BSA for 12 h at 4°C, washed, fixed, stained with Cy3-tagged FLAG antibody; confocal microscopy; green pixels (intensity 20-255) per cell
[2] = target: LPHN1-S (FLAG-tagged splice variant of murine LPHN1 with a truncated intracellular tail) (mouse)
[3] = target: LPHN1-S (FLAG-tagged splice variant of murine LPHN1 with a truncated intracellular tail) (mouse); remark: listed apart in the source

Row | Substance | green pixels per cell [1] [pixels/cell] | f-actin (Phalloidin red pixels per cell) in HEK-LPHN1-S cells treated with 100 nM mTCAP-1 for 60 min against vehicle; no significant change in HEK-WT cells [2] [%] | cell height of HEK-LPHN1-S cells treated with 100 nM mTCAP-1 for 60 min against vehicle; no significant change in HEK-WT cells [3] [%]
1 | FITC-tagged K37-mTCAP-1 (peptide) | 49.5 | – | –
2 | Mouse TCAP-1 (mTCAP-1), synthetic (peptide) | – | 343 | 39

— PMC6367273
